Laboratory results taken from the Immune Epitope Database (IEDB).

Molecular target: HLA-A*02:01
Assay: IEDB peptide-MHC binding, purified MHC/competitive/radioactivity; ≥ and ≤ were set here for values at or beyond the usual limits of such assays
Details: source organism: Human alphaherpesvirus 1

Sequence	IC50 [µM]
AIVVVIILV	6.91
ALAAIENYV	0.0027
ALAFDSTRV	0.649
ALAPVFAFL	0.0022
ALATALTEA	0.01
ALAVFQPAV	0.0016
ALDHYDCLI	0.18
ALGERLDAV	0.025
ALGLSAFGV	0.0096
ALGMRGLVL	0.491
ALHQCFTEL	0.831
ALHTALATV	0.016
ALLDRDCRV	0.0056
ALLEACLRV	0.0066
ALLGAWPAV	0.0025
ALLPAPITL	0.132
ALLQQTWTL	0.00039
ALMAGYFKI	0.049
ALMGAVTSL	0.0042
ALMLRLLRI	0.046
ALMRGRPGL	1.68
ALPDTVAPV	0.0091
ALQTDNYTL	0.029
ALSALLTKL	0.313
ALSPALTAL	0.194

Sequence	IC50 [µM]
ALSPVLPPM	0.03
ALVACVAAL	0.055
ALVAWLTHA	0.015
ALVELNSGV	0.0093
ALYACVLAA	0.0056
ALYYSVENV	0.038
AMDLVLAAV	0.0044
AMDSDLGSL	0.978
AMHARMAAV	0.019
AMNRRIMNV	1.19
AVFGVVAIV	0.25
AVGELLAPV	0.084
AVHDPERPL	3.94
AVLADFSLV	0.134
AVLAFVALI	0.107
AVVPIIPFL	1.03
AVWISLAQV	0.259
CLAEYCTSL	0.186
CLLCNLLLV	0.06
CLSDLLGFL	0.088
CMFGVVSPA	0.0095
DLAEWVPRV	0.0043
DLWNVMYTL	0.333
DMTPAELEV	0.669
ELACLLMYL	0.054

Sequence	IC50 [µM]
ELFGEAFEV	0.09
EMADTFLDT	1.77
EMIRYMALV	0.179
FAASANFFL	0.142
FADSDGHYV	0.142
FADTVVACV	0.059
FAFRYVNRL	0.122
FALDRPCLV	0.076
FIAPLGFSL	0.0065
FILDALAQA	0.0026
FILDNPGFV	0.011
FIPQYLSAV	0.015
FITTMAPRV	0.032
FIYLALLEA	0.011
FLAASALGV	0.0074
FLADAVVRL	0.052
FLALVSNRV	0.0074
FLAPELVRA	0.012
FLARFWTRA	0.048
FLASLVVLA	0.0017
FLCAKCLGA	0.137
FLCTADAAV	0.003
FLEDLSYPA	0.00064
FLGAGALAV	0.08
FLGDDPSPA	0.013

Sequence	IC50 [µM]
FLGGHVAVA	0.065
FLGSCICFI	0.012
FLHDVENFL	0.012
FLHLYLFLT	0.564
FLLAKLTDI	0.01
FLLKQFHAA	0.053
FLMAPDLYV	0.0064
FLNQANCKI	0.458
FLQPTADLL	0.026
FLRSCHWVL	0.582
FLRYHCPGL	0.188
FLSAKTLTV	0.011
FLSDSEAEA	0.0026
FLSRPINTI	0.528
FLSTLPSDV	0.076
FLTCTDRSV	0.083
FLTPLSVTL	0.0047
FLTREILWA	0.0042
FLTTPVPSL	0.111
FLVPGTHVA	0.045
FLWSFLVLK	1.42
FLYLAFVAL	1.97
FMAAKAAHL	0.276
FMHIWLQAA	0.081
FMPDFSRVI	0.101

Sequence	IC50 [µM]
FMQPDNANL	0.047
FMSVVNTNI	0.06
FMTALVLSL	0.0008
FMVSSIDEL	0.0011
FTATSIARV	0.074
FTINIAAYL	0.123
FTLPVLTFV	0.0011
FTQKSLFPI	0.084
FVADVQHAA	7.75
FVALIPPTL	0.704
FVAPYFESV	0.0087
FVFVILARL	0.72
FVGVIILGV	0.0059
FVPYVLALV	0.0009
FVVWALLGL	0.196
FVVYNLTGV	0.0022
FVWQERAAV	0.261
FVYTPSPYV	0.129
FWMSPVFNL	0.096
GIAWYVTSI	0.143
GILTVVWTA	0.0021
GLARLDALV	0.013
GLAVAMEV	0.025
GLAVDLYAL	0.012
GLAVVLWSL	0.017

Sequence	IC50 [µM]
GLDEQQLDV	1.18
GLFFSVYAL	0.023
GLFQEAYPL	0.0054
GLFQPFMFV	0.037
GLFVSLPVV	0.0047
GLGRHLWRL	0.133
GLISFYNFL	0.0015
GLLFVLLVA	1.06
GLLGSLVGA	0.0037
GLLRVGADT	23.9
GLNGDSFRV	0.022
GLVFRFSEV	0.262
GLVLVWYTV	0.066
GLVSFNFLV	0.0005
GLWVCATSL	0.036
GLYLCVVYV	0.047
GMHPRGVHA	≥ 70
GMLICLTVL	0.548
GMRGLVLAT	3.66
GMVIACLLV	0.252
GPGDPDVYL	30.6
GQAAALTDL	2.3
GVVIIAALV	1.08
HLCRYVALL	0.2
HLMRDPALL	0.037

Sequence	IC50 [µM]
HMFCDPMCA	0.796
HMGEVPPRL	1.74
IAPNASLGV	0.11
IILTLIPRL	0.127
IIPFLLVLV	0.055
IIWGELFGV	0.0023
ILDAARPAV	0.099
ILFLWSFLV	0.00036
ILFSYDELV	0.0056
ILIEGIFFA	0.00017
ILLENLMRA	0.019
ILMHATYFL	0.0012
ILMILIEGI	0.012
ILSPTAPSV	0.0061
ILVVSLLLV	0.205
ILYSVLQHL	0.055
ITMGMPYAV	0.023
IVYLCPVLV	0.137
KIFRCLTVL	0.159
KLAVYYYII	0.031
KLCSPVFAI	0.0093
KLLALLGQV	0.033
KLLWAVEPL	0.012
KLMARRAQV	0.795
KMAQCTLAV	0.014

Sequence	IC50 [µM]
KMDIDVEYL	0.148
KMNQTLLFL	0.907
KMSYPQFLA	1.4
KQLNYCHLI	0.398
KSMDDDTYV	0.689
KTWFLVPLI	0.0017
LITDDGEVV	13.7
LITNYLPSV	0.0052
LLAENLPGL	0.0011
LLAFDTQPV	0.0093
LLAKMLFYL	0.0056
LLANNPPPV	0.024
LLANTVRYL	0.075
LLAPGPLFV	0.0056
LLAQFQHTV	0.0012
LLAVAVYAV	0.0058
LLDDLGFSA	0.046
LLDFELACL	0.063
LLDTGPFSA	0.093
